In patent publication US20200222478A1 (published 2020):

Assays:
Assay in all cases: UV peptide exchange + HLA class I ELISA
HLA-A*01:01 = molecular target: T1, HLA-A*01:01 (human, biotinylated heavy chain)
T1 construct: Conditional HLA class I complex first loaded with a UV-labile peptide, which is cleaved by UV and exchanged for the test peptide; captured on streptavidin by its biotinylated heavy chain; also called conditional HLA class I complex
Procedure: (§1) The HLA class I ELISA is an enzyme immunoassay based on the detection of beta2-microglobulin (B2M) of (peptide-stabilized) HLA class I complexes. To this end streptavidin was bound onto polystyrene microtiter wells. […] Non-bound material was removed by washing. Subsequently, horseradish peroxidase (HRP)-conjugated antibody to human B2M was added. […] In the latter case B2M was removed during the washing step. After removal of non-bound HRP conjugate by washing, a substrate solution was added to the wells. A coloured product formed in proportion to the amount of intact HLA complex present in the samples. After the reaction was terminated by the addition of a stop solution, absorbance was measured in a microtiter plate reader.

HLA-A*02:01 = molecular target: T2, HLA-A*02:01 (human, biotinylated heavy chain)
T2 construct: Conditional HLA class I complex first loaded with a UV-labile peptide, exchanged for the test peptide after UV; also called conditional HLA class I complex
Procedure: as §1

HLA-A*03:01 = molecular target: T3, HLA-A*03:01 (human, biotinylated heavy chain)
T3 construct: Conditional HLA class I complex first loaded with a UV-labile peptide, exchanged for the test peptide after UV; also called conditional HLA class I complex
Procedure: as §1

HLA-A*24:02 = molecular target: T4, HLA-A*24:02 (human, biotinylated heavy chain)
T4 construct: Conditional HLA class I complex first loaded with a UV-labile peptide, exchanged for the test peptide after UV; also called conditional HLA class I complex
Procedure: as §1

HLA-B*07:02 = molecular target: T5, HLA-B*07:02 (human, biotinylated heavy chain)
T5 construct: Conditional HLA class I complex first loaded with a UV-labile peptide, exchanged for the test peptide after UV; also called conditional HLA class I complex
Procedure: as §1

HLA-B*08:01 = molecular target: T6, HLA-B*08:01 (human, biotinylated heavy chain)
T6 construct: Conditional HLA class I complex first loaded with a UV-labile peptide, exchanged for the test peptide after UV; also called conditional HLA class I complex
Procedure: as §1

Question: For NSKMALNSL [P35 9-mer peptide (TMPRSS2-ERG fusion)], which “exchange rate vs Pos peptide” value (HLA-A*01:01) is on record?
Answer: 2.5%

Question: What about the “exchange rate vs Pos peptide” value (HLA-A*02:01) of the same binder?
Answer: 12.5%

Question: And the “exchange rate vs Pos peptide” value (HLA-A*03:01)?
Answer: 4.2%

Question: What about the “exchange rate vs Pos peptide” value (HLA-A*24:02) of the same binder?
Answer: 0.2%

Question: What about the “exchange rate vs Pos peptide” value (HLA-B*07:02) of the same binder?
Answer: 12.1%

Question: What about the “exchange rate vs Pos peptide” value (HLA-B*08:01) of the same binder?
Answer: 13.7%

Question: How did the “exchange rate vs Pos peptide” value (HLA-A*01:01) turn out when FFKRAAEGF [P77 9-mer peptide (AR-V3 splice variant)] was run?
Answer: 1.9%

Question: What about the “exchange rate vs Pos peptide” value (HLA-A*03:01) of the same binder?
Answer: 2.8%

Question: And the “exchange rate vs Pos peptide” value (HLA-A*24:02)?
Answer: 1.7%

Question: What about the “exchange rate vs Pos peptide” value (HLA-B*07:02) of the same binder?
Answer: 14.2%

Question: What about the “exchange rate vs Pos peptide” value (HLA-B*08:01) of the same binder?
Answer: 3.4%

Question: With STRRAVRRM (Synthetic 9-mer fragment) [P16 9-mer peptide (MSMB-NCOA4 fusion)] as the binder, how does the “exchange rate vs Pos peptide” value (HLA-A*01:01) read?
Answer: 5.5%

Question: What about the “exchange rate vs Pos peptide” value (HLA-A*02:01) of the same binder?
Answer: 10.4%

Question: And the “exchange rate vs Pos peptide” value (HLA-A*03:01)?
Answer: 6.1%

Question: What about the “exchange rate vs Pos peptide” value (HLA-A*24:02) of the same binder?
Answer: 0.8%

Question: What about the “exchange rate vs Pos peptide” value (HLA-B*07:02) of the same binder?
Answer: 13.7%

Question: And the “exchange rate vs Pos peptide” value (HLA-B*08:01)?
Answer: 6.2%

Question: What does the source list for FPVGAEGTF [P27 9-mer peptide (FAM126B-ORC2 fusion)]?
Answer: exchange rate vs Pos peptide (HLA-A*01:01): 4.8%; exchange rate vs Pos peptide (HLA-A*02:01): 10%; exchange rate vs Pos peptide (HLA-A*03:01): 4.5%; exchange rate vs Pos peptide (HLA-A*24:02): 0.7%; exchange rate vs Pos peptide (HLA-B*07:02): 7.8%; exchange rate vs Pos peptide (HLA-B*08:01): 6.4%

Question: With IQYSCMGLM [P50 9-mer peptide (AR (W742C))] as the binder, how does the “exchange rate vs Pos peptide” value (HLA-A*01:01) read?
Answer: 2.3%

Question: What about the “exchange rate vs Pos peptide” value (HLA-A*02:01) of the same binder?
Answer: 8.8%

Question: What about the “exchange rate vs Pos peptide” value (HLA-A*03:01) of the same binder?
Answer: 5.5%

Question: What about the “exchange rate vs Pos peptide” value (HLA-A*24:02) of the same binder?
Answer: 0.1%

Question: What about the “exchange rate vs Pos peptide” value (HLA-B*07:02) of the same binder?
Answer: 10.4%

Question: What about the “exchange rate vs Pos peptide” value (HLA-B*08:01) of the same binder?
Answer: 4.7%

Question: NMVENGCYL [P59 9-mer peptide (FOXA1 (F254V))] was tested. Which “exchange rate vs Pos peptide” value (HLA-A*01:01) did it give?
Answer: 2.2%

Question: What about the “exchange rate vs Pos peptide” value (HLA-A*02:01) of the same binder?
Answer: 11.9%

Question: And the “exchange rate vs Pos peptide” value (HLA-A*03:01)?
Answer: 4.5%

Question: And the “exchange rate vs Pos peptide” value (HLA-A*24:02)?
Answer: -0.5%

Question: And the “exchange rate vs Pos peptide” value (HLA-B*07:02)?
Answer: 7.5%

Question: And the “exchange rate vs Pos peptide” value (HLA-B*08:01)?
Answer: 5.5%

Question: Which results are given for GVLRRLLCR [P37 9-mer peptide (TSTD1-F11R fusion)]?
Answer: exchange rate vs Pos peptide (HLA-A*01:01): 1.4%; exchange rate vs Pos peptide (HLA-A*02:01): 12.5%; exchange rate vs Pos peptide (HLA-A*03:01): 6.4%; exchange rate vs Pos peptide (HLA-A*24:02): -0.1%; exchange rate vs Pos peptide (HLA-B*08:01): 3.3%
